{"source": "paper doi:10.1101/2025.05.15.25327633", "target": "Platelet-factor 4 (Human CXCL4) (human)", "assay": "cross-linking + AUC"}
{"substance": "Platelet-factor 4 (Human CXCL4) (natural protein)", "values": [{"measurement": "percent of PF4 present as tetramers", "value": 81.2, "unit": "%"}, {"measurement": "stoichiometry N", "value": 4}]}
